Measured values published in PMC10508983, “Nucleotide-free structures of KIF20A illuminate atypical mechanochemistry in this kinesin-6” (Open Biology, 2023).

B1: KIF20A 1–665 (His-tagged dimeric motor construct) (domain or fragment, mouse, UniProt P97329 1-665, looked up)
chain: MSHRILSPPAGLLSDEDVVDSPILESTAADLRSVVRKDLLSDCSVISASLEDKQALLEDTSEKVKVYLRIRPFLTSELDRQEDQGCVCIENTETLVLQAPKDSFALKSNERGVGQATHKFTFSQIFGPEVGQVAFFNLTMKEMVKDVLKGQNWLIYTYGVTNSGKTYTIQGTSKDAGILPQSLALIFNSLQGQLHPTPDLKPLLSNEVIWLDSKQIRQEEMKKLSLLIGGLQEEELSTSVKKRVHTESRIGASNSFDSGVAGLSSTSQFTSSSQLDETSQLWAQPDTVPVSVPADIRFSVWISFFEIYNELLYDLLEPPSHQHKRQTLRLCEDQNGNPYVKDLNWIHVRDVEEAWKLLKVGRKNQSFASTHMNQQSSRSHSIFSIRILHLQGEGDIVPKISELSLCDLAGSERCKHQKSGERLKEAGNINTSLHTLGRCIAALRQNQQNRSKQNLIPFRDSKLTRVFQGFFTGRGRSCMIVNVNPCASTYDETLHAAKFSALASQLVHAPPVHLGIPSLHSFIKKHSPQVGPGLEKEDKADSDLEDSPEDEADVSVYGKEELLQVVEAMKALLLKERQEKLQLEIQLREEICNEMVEQMQQREQWCSERLDNQKELMEELYEEKLKILKESLTTFYQEQIQERDEKIEELETLLQEAKQQPAAQQ
notes: source: E. coli NiCO21 (DE3), purified (chitin resin, HisTrap HP, size-exclusion chromatography); not shown: His6, C-terminal, kept
B2: KIF20A 25–665 (domain or fragment, mouse, UniProt P97329 25-665, looked up)
chain: ESTAADLRSVVRKDLLSDCSVISASLEDKQALLEDTSEKVKVYLRIRPFLTSELDRQEDQGCVCIENTETLVLQAPKDSFALKSNERGVGQATHKFTFSQIFGPEVGQVAFFNLTMKEMVKDVLKGQNWLIYTYGVTNSGKTYTIQGTSKDAGILPQSLALIFNSLQGQLHPTPDLKPLLSNEVIWLDSKQIRQEEMKKLSLLIGGLQEEELSTSVKKRVHTESRIGASNSFDSGVAGLSSTSQFTSSSQLDETSQLWAQPDTVPVSVPADIRFSVWISFFEIYNELLYDLLEPPSHQHKRQTLRLCEDQNGNPYVKDLNWIHVRDVEEAWKLLKVGRKNQSFASTHMNQQSSRSHSIFSIRILHLQGEGDIVPKISELSLCDLAGSERCKHQKSGERLKEAGNINTSLHTLGRCIAALRQNQQNRSKQNLIPFRDSKLTRVFQGFFTGRGRSCMIVNVNPCASTYDETLHAAKFSALASQLVHAPPVHLGIPSLHSFIKKHSPQVGPGLEKEDKADSDLEDSPEDEADVSVYGKEELLQVVEAMKALLLKERQEKLQLEIQLREEICNEMVEQMQQREQWCSERLDNQKELMEELYEEKLKILKESLTTFYQEQIQERDEKIEELETLLQEAKQQPAAQQ
notes: source: E. coli NiCO21 (DE3), purified (chitin resin, HisTrap HP, size-exclusion chromatography)
B3: KIF20A 55–665 (domain or fragment, mouse, UniProt P97329 55-665, looked up)
chain: ALLEDTSEKVKVYLRIRPFLTSELDRQEDQGCVCIENTETLVLQAPKDSFALKSNERGVGQATHKFTFSQIFGPEVGQVAFFNLTMKEMVKDVLKGQNWLIYTYGVTNSGKTYTIQGTSKDAGILPQSLALIFNSLQGQLHPTPDLKPLLSNEVIWLDSKQIRQEEMKKLSLLIGGLQEEELSTSVKKRVHTESRIGASNSFDSGVAGLSSTSQFTSSSQLDETSQLWAQPDTVPVSVPADIRFSVWISFFEIYNELLYDLLEPPSHQHKRQTLRLCEDQNGNPYVKDLNWIHVRDVEEAWKLLKVGRKNQSFASTHMNQQSSRSHSIFSIRILHLQGEGDIVPKISELSLCDLAGSERCKHQKSGERLKEAGNINTSLHTLGRCIAALRQNQQNRSKQNLIPFRDSKLTRVFQGFFTGRGRSCMIVNVNPCASTYDETLHAAKFSALASQLVHAPPVHLGIPSLHSFIKKHSPQVGPGLEKEDKADSDLEDSPEDEADVSVYGKEELLQVVEAMKALLLKERQEKLQLEIQLREEICNEMVEQMQQREQWCSERLDNQKELMEELYEEKLKILKESLTTFYQEQIQERDEKIEELETLLQEAKQQPAAQQ
notes: as for B2

Molecular target: the molecule itself
Test: SEC-MALS; 5 mg ml^-1 of each protein injected into a Superdex 200 10/30 Increase column; MALS and refractive index

Stoichiometry N, 2:
B1
B2
B3
